The record followed here is PMC10189128 (Frontiers in Cellular and Infection Microbiology, 2023).

The experiment deals with T1, Mouse Fc-fused SARS-CoV-2 RBD (SARS-CoV-2, original strain (Wuhan-Hu-1 …, UniProt P0DTC2)).
T1 construct: source: bought: Sino Biological
As to the kind of experiment: SPR. As to conditions: both partners purified.

B1: anti-SARS-CoV-2 single-chain variable fragment S1-16 (scFv, V domains shown)
VH: QVQLVQSGAEVKKPGASVKVSCKASGYTFTSYYMHWVRQAPGQGLEWMGIINSSGGSTSYAQKFQGRVTMTRDTSTSTVYMELSSLRSEDTAVYYCARPPRNYYDRSGYYQRAEYFQHWGQGTLVTVSS
VL: DIQLTQSPSSLSASVGDRVTITCQASQDISNYLNWYQQRPGKAPKLLIYDASNLETGVPSRFSGSGSGTDFTFTISSLQPEDIATYYCQQYDNPPLTFGGGTKLEIK
notes: also called scFv S1-16; not shown: His6, C-terminal, kept
In turn, B1 registered a Kd of 135 nM.

The term Kd denotes the concentration at which binding is half-saturated.
